Values belong to the binder of their own block, whether it stands above or below them.
Columns and labels:
Nedd8 [1] = biological target: T1, Nedd8 (human, UniProt Q15843 1-76); assay: fluorescence intensity, free Nedd8 titrated into Atto532-tIV
T1 construct: also called free Nedd8; Nedd8 protein

[2] = biological target: T2, Ubiquitin (free, untagged) (human, UniProt P0CG48 1-76); assay: fluorescence intensity of the Atto532-tagged sensor against free ubiquitin concentration, single-site fit
T2 construct: also called free ubiquitin; unconjugated ubiquitin protein

[3] = biological target: T2, Ubiquitin (free, untagged); assay: relative fluorescence competition against 5 nM Atto532-tagged ubiquitin on 600 nM tSR
Nedd8 [4] = biological target: T1, Nedd8; assay: direct titration, relative fluorescence of 10 nM Alexa488 tSR

T1 sequence (Q15843 1-76 limits assumed): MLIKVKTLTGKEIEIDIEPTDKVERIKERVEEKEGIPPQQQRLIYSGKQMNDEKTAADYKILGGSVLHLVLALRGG

B1: Atto532-tagged tIV L1 Cys (designed binder)
chain: MGSSHHHHHHSSGLVPRGSHMKQEVQAWDGEVRQVSKHAFSLKQLDNPARIPPSGWKCSKCDMRENLWLNLTDGSILCGRRYFDGSGGNNHAVEHYRETGYPLAVKLGTITPDGADVWSYDEDDMVLDPSLAEHLSHFGIDMLKMQKGSCAAAEEAELDLKAAIQESLREA
modifications: Atto532 fluorophore on the Cys of linker 1 (the bold C of the 2nd table)
notes: Two domains: IsoT^ZnF and Vps27^UIM; also called Atto532-tIV
Kd (Nedd8 [1]): 9.4 µM | binding result [2]: binds

B2: tSR chimeric polypeptide sensor (designed binder)
chain: MPSSHHHHHHSSGLVPRGSHMTEEEQIAYAMQMSLREAGGGSDLLCKKGCGYYGNPAWQGFCSKCWREEAHKCAAERAAAE
notes: His-tag leader, S5a^UIM, linker, Ruz; also called tSR chimeric peptide universal sensor
binding result [3]: binds

Next, values leading:

binding result (Nedd8 [4]): no binding
B3: Alexa488-tagged tSR (designed binder)
chain: B2 chain
modifications: Alexa488 fluorophore, attachment site not stated
notes: also called Alexa488 tSR; fluorophore-tagged tSR

binding result [2]: binds
B4: Atto532-tagged IsoT^ZnF (S227C) (designed binder)
chain: MPSSHHHHHHSSGLVPRGSHMKQEVQAWDGEVRQVSKHAFSLKQLDNPARIPPSGWKCSKCDMRENLWLNLTDGSILCGRRYFDGCGGNNHAVEHYRETGYPLAVKLGTITPDGADVYSYDEDDMVLDPSLAEHLSHFGIDMLKMQK
modifications: Atto532 fluorophore on the Cys of S227C (the bold C of the 2nd table)

From patent US20180364250A1 (COLORADO STATE UNIVERSITY RESEARCH FOUNDATION, published 2018)
